Consider 35 molecules from patent publication US20190153059A1 (ADEPTHERA, published 2019).

Holding throughout (assay): cell-based or functional assay
The target of one test is CLR/RAMP2 receptor (UniProt Q16602 23-461; O60895 43-175, limits assumed).
For test [1], the target named is T1, CLR/RAMP1 receptor (UniProt Q16602 23-461; O60894 27-148, limits assumed).
Test [2] deals with T1, CLR/RAMP1 receptor. The source holds these as a separate data set.

Square brackets hold non-standard residues; d marks the D form. Ends that are not written are not given here. * marks the point of attachment. Palmitoyl = CCCCCCCCCCCCCCCC(=O)*; AEEA = NCCOCCOCC(=O)O

CLR/RAMP2 receptor, sequence (Q16602 23-461 limits assumed, chain 1 of 2): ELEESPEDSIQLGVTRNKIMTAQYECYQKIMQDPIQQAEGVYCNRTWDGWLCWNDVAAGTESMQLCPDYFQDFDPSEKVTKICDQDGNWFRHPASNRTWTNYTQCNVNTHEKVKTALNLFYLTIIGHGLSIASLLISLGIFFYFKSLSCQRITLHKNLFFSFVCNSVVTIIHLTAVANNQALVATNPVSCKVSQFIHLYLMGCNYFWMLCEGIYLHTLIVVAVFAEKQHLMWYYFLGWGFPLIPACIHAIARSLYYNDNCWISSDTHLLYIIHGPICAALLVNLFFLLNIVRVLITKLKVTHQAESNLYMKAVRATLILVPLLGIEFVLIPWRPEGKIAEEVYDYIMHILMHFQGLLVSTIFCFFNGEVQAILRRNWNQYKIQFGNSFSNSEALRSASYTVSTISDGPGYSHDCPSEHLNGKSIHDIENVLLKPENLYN
CLR/RAMP2 receptor, sequence (O60895 43-175 limits assumed, chain 2 of 2): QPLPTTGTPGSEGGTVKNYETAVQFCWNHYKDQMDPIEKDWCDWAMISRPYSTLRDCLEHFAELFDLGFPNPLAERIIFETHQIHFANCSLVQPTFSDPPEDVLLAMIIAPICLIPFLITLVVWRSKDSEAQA
T1 sequence (Q16602 23-461 limits assumed, chain 1 of 2): as the sequence (Q16602 23-461 limits assumed, chain 1 of 2) above
T1 sequence (O60894 27-148 limits assumed, chain 2 of 2): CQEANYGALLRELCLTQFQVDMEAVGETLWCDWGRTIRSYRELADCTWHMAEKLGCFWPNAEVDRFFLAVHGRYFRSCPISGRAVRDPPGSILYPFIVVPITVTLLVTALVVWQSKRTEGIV

Take Palmitoyl-KGCRFGTCTVQKLAHQIYQFTPAGRQDSAPVDPSSPHSY-NH2 (cysteine pairing not given here) [SEQ ID NO: 31]: the “CLR/RAMP2 EC50” value with CLR/RAMP2 receptor worked out at 0.9 nM. Also, in the test with CLR/RAMP1 receptor [1], the “CLR/RAMP1 EC50” value is 0.8 nM.
The corresponding values for Palmitoyl-KGCRFGTCTVQKLAHQIYQFTDKDAPVDPSSPHSY-NH2 (ends and bridges not checked) [SEQ ID NO: 110] are 6.4 nM and 43 nM.
With Palmitoyl-KGCRFGTCTVQKLAHQIYQFTDKGRQDSAPVDPSSPHSY-NH2 (ends and bridges not checked) [SEQ ID NO: 36], the “CLR/RAMP2 EC50” value with CLR/RAMP2 receptor was determined as 0.9 nM. In the test with CLR/RAMP1 receptor [1], the “CLR/RAMP1 EC50” value turned out to be 0.6 nM.
The corresponding values for Ac-K(Palmitoyl)GCRFGTCTVQKLAHQIYQFTPAGRQDSAPVDPSSPHSY-NH2 (cysteine pairing not given here) [SEQ ID NO: 33] are 0.4 nM and 0.3 nM.
The matching figures for Ac-VGCRFGTCTVQKLAHQIYQFTDKDKDNSAPVDPSSPHSY-NH2 (ends and bridges not checked) [SEQ ID NO: 56]: 17 nM and 224 nM.
Regarding [AEEA]K(Palmitoyl)GCRFGTCTVQKLAHQIYQFTDKDKDSAPVDPSSPHSY-NH2 (ends and bridges not checked) [SEQ ID NO: 46], in the test with CLR/RAMP2 receptor, the “CLR/RAMP2 EC50” value was 0.5 nM and the “CLR/RAMP2 Max Activity” value was 104 % of positive control.
In the case of Palmitoyl-KCRFGTCTVQKLAHQIYQFTDKDKDNSAPVDPSSPHSY-NH2 (ends and bridges not checked) [SEQ ID NO: 44], the “CLR/RAMP2 EC50” value in the test with CLR/RAMP2 receptor was 0.2 nM. Moreover, in the test with CLR/RAMP1 receptor [1], the “CLR/RAMP1 EC50” value is 0.1 nM.
With Ac-KGCRFGTCTVQKLAHQIYQFTDKDKDNVAPVDPSSPHSY-NH2 (ends and bridges not checked) [SEQ ID NO: 60], the “CLR/RAMP2 EC50” value with CLR/RAMP2 receptor was 3 nM. Further, the “CLR/RAMP1 EC50” value with CLR/RAMP1 receptor [1] is 16 nM.
Palmitoyl-KGCRFGTCTVQKLAHQIYQFTDKDKQDSAPVDPSSPHSY-NH2 (ends and bridges not checked) [SEQ ID NO: 35]: the “CLR/RAMP2 EC50” value with CLR/RAMP2 receptor was 1 nM. Besides, the “CLR/RAMP1 EC50” value with CLR/RAMP1 receptor [1] was found to be 0.8 nM.
For Ac-KGCRFGTCTVQKLAHQIYQFTDKDKDNSAPVDPSSPHSY-NH2 (ends and bridges not checked) [SEQ ID NO: 59], the “CLR/RAMP2 EC50” value with CLR/RAMP2 receptor was 18 nM. The “CLR/RAMP1 EC50” value with CLR/RAMP1 receptor [1] came to 31 nM.
Take [AEEA]K(Palmitoyl)CRFGTCTVQKLAHQIYQFTDKDKDNSAPVDPSSPHSY-NH2 (ends and bridges not checked) [SEQ ID NO: 43]: in the test with CLR/RAMP2 receptor, the “CLR/RAMP2 EC50” value was determined as 0.2 nM and the “CLR/RAMP2 Max Activity” value is 30 % of positive control. In the test with CLR/RAMP1 receptor [1], the “CLR/RAMP1 EC50” value came out at 0.5 nM and the “CLR/RAMP1 Max Activity” value was 39 % of positive control.
With Ac-K(Palmitoyl)GCRFGTCTVQKLAHQIYQFTDKDKDNVAPRSKSSPHSY-NH2 (ends and bridges not checked) [SEQ ID NO: 65], the “CLR/RAMP2 EC50” value with CLR/RAMP2 receptor worked out at 19 nM. In addition, the “CLR/RAMP1 EC50” value in the test with CLR/RAMP1 receptor [1] is 234 nM.
The matching figures for Palmitoyl-GCRFGTCTVQKLAHQIYQFTDKDKDNSAPVDPSSPHSY-NH2 (ends and bridges not checked) [SEQ ID NO: 45]: 0.3 nM and 0.1 nM.
Turning to [AEEA]K(Palmitoyl)GCRFGTCTVQKLAHQIYQFTDKDKQDSAPVDPSSPHSY-NH2 (ends and bridges not checked) [SEQ ID NO: 51], the “CLR/RAMP2 EC50” value with CLR/RAMP2 receptor is 0.3 nM. For the same molecule, in the test with CLR/RAMP1 receptor [1], the “CLR/RAMP1 EC50” value came out at 0.2 nM and the “CLR/RAMP1 Max Activity” value is 65 % of positive control.
For the molecule Palmitoyl-KGCRFGTCTVQKLAHQIYQFTDKDKDNVAPVDPSSPHSY-NH2 (ends and bridges not checked) [SEQ ID NO: 34], the “CLR/RAMP2 EC50” value with CLR/RAMP2 receptor came to 0.7 nM. For the same molecule, the “CLR/RAMP1 EC50” value in the test with CLR/RAMP1 receptor [1] amounted to 0.2 nM.
In the case of Ac-FGCRFGTCTVQKLAHQIYQFTDKDKDNVAPRSKISPQGY-NH2 (ends and bridges not checked) [SEQ ID NO: 53 (human ADM)], the “CLR/RAMP2 Max Activity” value with CLR/RAMP2 receptor was 102 % of positive control. Moreover, the “CLR/RAMP1 Max Activity” value in the test with CLR/RAMP1 receptor [1] was 69 % of positive control.
With Palmitoyl-KGCRFGTCTVQKLAHQIYQFTDKDKDNVAPRSKSSPHSY-NH2 (ends and bridges not checked) [SEQ ID NO: 63], the “CLR/RAMP2 EC50” value with CLR/RAMP2 receptor amounted to 7 nM. For the same molecule, the “CLR/RAMP1 EC50” value in the test with CLR/RAMP1 receptor [1] came to 180 nM.
The corresponding values for Ac-KGCRFGTCTVQKLAHQIYQFTDKDSAPVDPSSPHSY-NH2 (cysteine pairing not given here) [SEQ ID NO: 93] are 17 nM and 771 nM.
For [AEEA]K(Palmitoyl)GCRFGTCTVQKLAHLWQLMGPAGRQDSAPVDPSSPHSY-NH2 (not fully specified; ends and bridges not checked) [SEQ ID NO: 62], the “CLR/RAMP1 Max Activity” value in the test with CLR/RAMP1 receptor [1] is 2 % of positive control.

B1: SEQ ID NO: 145 (peptide)
peptide: YAGFLKVQKLSAPVDPSSPHSY
modifications: Ace- at N-terminus; (D-Ala) and (D-Leu) in Y(D-Ala)GF(D-Leu); miniPEG before K(Pal); K(Pal); -NH2
Regarding B1, in the test with CLR/RAMP1 receptor [2], the “CLR/RAMP1 IC50” value is less than 0.5 nM and the “CLR/RAMP1 Max Activity (antagonist)” value was 99 % of positive control.
For TKKTLRTGCRFGTCTVQKLAHQIYQFTDKDKDNVAPVDPSSPHSY (miniPEG- at N-terminus; K(Pal) at position 2 (miniPEG-TK(Pal)K...); -NH2) [SEQ ID NO: 42], the “CLR/RAMP2 EC50” value with CLR/RAMP2 receptor was 0.2 nM.
For the molecule KGCRFGTCTVQKLAHQIYQFTDKDKDNVAPRSKISPQGY (Ace-PEG3- at N-terminus; K(Hexadecanoyl-isoGlu); -NH2) [SEQ ID NO: 151], the “CLR/RAMP1 EC50” value with CLR/RAMP1 receptor [1] is 0.5 nM.
Turning to KGCRFGTCTVQKLAHQIYQFTDKDKDNVAPRSKISPQGY (Ace-PEG3- at N-terminus; K([19-carboxy-nonadecanoyl]-PEG3-isoGlu); -NH2) [SEQ ID NO: 156], in the test with CLR/RAMP1 receptor [1], the “CLR/RAMP1 EC50” value worked out at 0.8 nM and the “CLR/RAMP1 Max Activity” value was 88 % of positive control.
For KGCRFGTCTVQKLAHQIYQFTDKDKDNVAPRSKISPQGY (Ace-PEG3- at N-terminus; K([19-carboxy-nonadecanoyl]-isoGlu); -NH2) [SEQ ID NO: 155], in the test with CLR/RAMP1 receptor [1], the “CLR/RAMP1 EC50” value came out at 0.6 nM.
In the case of KGCRFGTCTVQKLAHQIYQFTDKDKDNVAPRSKISPQGY (Pal- at N-terminus; K(Pal); -NH2) [SEQ ID NO: 73], the “CLR/RAMP2 EC50” value in the test with CLR/RAMP2 receptor came to 49 nM. Moreover, the “CLR/RAMP1 EC50” value with CLR/RAMP1 receptor [1] came out at 34 nM.
Palmitoyl-KTKKTLRTGCRFGTCTVQKLAHQIYQFTDKDKDNVAPVDPSSPHSY-NH2 (ends and bridges not checked) [SEQ ID NO: 40]: in the test with CLR/RAMP2 receptor, the “CLR/RAMP2 EC50” value was determined as 1 nM. The “CLR/RAMP1 EC50” value with CLR/RAMP1 receptor [1] came out at 2 nM.
On to Palmitoyl-KTKKTLRTGCRFGTCTVQKLAHQIYQFTDKDKDNSAPVDPSSPHSY-NH2 (ends and bridges not checked) [SEQ ID NO: 38], for which the “CLR/RAMP2 EC50” value with CLR/RAMP2 receptor was found to be 0.7 nM. For the same molecule, the “CLR/RAMP1 EC50” value with CLR/RAMP1 receptor [1] is 0.5 nM.
Turning to Ac-TK(Palmitoyl)KTLRTGCRFGTCTVQKLAHQIYQFTDKDKDNVAPVDPSSPHSY-NH2 (ends and bridges not checked) [SEQ ID NO: 41], in the test with CLR/RAMP2 receptor, the “CLR/RAMP2 EC50” value turned out to be 0.9 nM. In the test with CLR/RAMP1 receptor [1], the “CLR/RAMP1 EC50” value came to 0.4 nM.
The corresponding values for Palmitoyl-KGCRFGTCTVQKLAHQIYQFTDKDKDNSAPVDPSSPHSY-NH2 (cysteine pairing not given here) [SEQ ID NO: 30] are 0.6 nM and 0.4 nM.
For the molecule KGCRFGTCTVQKLAHQIYQFTDKDKSAPVDPSSPHSY (miniPEG- at N-terminus; K(PAL); -NH2) [SEQ ID NO: 47], in the test with CLR/RAMP2 receptor, the “CLR/RAMP2 EC50” value was determined as 0.4 nM and the “CLR/RAMP2 Max Activity” value was 64 % of positive control.
For the molecule Ac-TK(Palmitoyl)KTLRTGCRFGTCTVQKLAHQIYQFTDKDKDNSAPVDPSSPHSY-NH2 (ends and bridges not checked) [SEQ ID NO: 39], in the test with CLR/RAMP2 receptor, the “CLR/RAMP2 EC50” value worked out at 0.5 nM. Besides, the “CLR/RAMP1 EC50” value in the test with CLR/RAMP1 receptor [1] was 0.2 nM.
As for Ac-VGCRFGTCTVQKLAHQIYQFTPAGRQDSAPVDPSSPHSY-NH2 (ends and bridges not checked) [SEQ ID NO: 57], the “CLR/RAMP2 EC50” value with CLR/RAMP2 receptor was found to be 149 nM. The “CLR/RAMP1 EC50” value in the test with CLR/RAMP1 receptor [1] stood at 909 nM.
As to KGCRFGTCTVQKLAHQIYQFTDKDVAPRSKISPQGY (miniPEG- at N-terminus; K(PAL); (D-Ser) in ...VAPR(D-Ser)KISPQGY; -NH2) [SEQ ID NO: 213], in the test with CLR/RAMP2 receptor, the “CLR/RAMP2 EC50” value is 0.7 nM and the “CLR/RAMP2 Max Activity” value was 107 % of positive control.
KGCRFGTCTVQKLAHQIYQFTDKDVAPRSKISPQGY (miniPEG- at N-terminus; K(PAL); (D-Gln) in ...KISP(D-Gln)GY; -NH2) [SEQ ID NO: 214]: in the test with CLR/RAMP2 receptor, the “CLR/RAMP2 EC50” value came out at 0.4 nM and the “CLR/RAMP2 Max Activity” value was 99 % of positive control.
As for KGCRFGTCTVQKLAHQIYQFTDKDVAPRSKISPQGY (miniPEG- at N-terminus; K(PAL); (D-Val) in ...GTCT(D-Val)QKL...; -NH2) [SEQ ID NO: 211], in the test with CLR/RAMP2 receptor, the “CLR/RAMP2 EC50” value came out at 0.9 nM and the “CLR/RAMP2 Max Activity” value is 22 % of positive control. Further, the “CLR/RAMP1 EC50” value with CLR/RAMP1 receptor [1] is 8 nM.
